According to paper PMC10397247:
Like-named read-outs stand apart in the source and are kept apart here. Blank lines part the entries; values can stand above or below the binder they belong to.

What was measured:
4H906-AA = molecular target: T1, 4H906-AA; experiment: two-hybrid library CCmax; details: mean of both orientations;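 also: natural log of median RNA to DNA barcode read ratio; higher means stronger binding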
T1 chain: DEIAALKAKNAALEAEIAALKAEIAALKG

4H3655-AA = molecular target: T2, 4H3655-AA; experiment: two-hybrid library CCmax; details: mean of both orientations;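 also: natural log of median RNA to DNA barcode read ratio; higher means stronger binding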
T2 chain: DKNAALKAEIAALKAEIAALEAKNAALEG

4H780-AA = molecular target: T3, 4H780-AA; experiment: two-hybrid library CCmax; details: mean of both orientations;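 also: natural log of median RNA to DNA barcode read ratio; higher means stronger binding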
T3 chain: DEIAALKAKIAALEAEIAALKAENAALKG

4H429-AA = molecular target: T4, 4H429-AA; experiment: two-hybrid library CCmax; details: mean of both orientations;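 also: natural log of median RNA to DNA barcode read ratio; higher means stronger binding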
T4 chain: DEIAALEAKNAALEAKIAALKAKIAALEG

4H3844-AA = molecular target: T5, 4H3844-AA; experiment: two-hybrid library CCmax; details: mean of both orientations;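 also: natural log of median RNA to DNA barcode read ratio; higher means stronger binding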
T5 chain: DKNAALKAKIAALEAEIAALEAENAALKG

4H342-AA = molecular target: T6, 4H342-AA; experiment: two-hybrid library CCmax; details: mean of both orientations;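 also: natural log of median RNA to DNA barcode read ratio; higher means stronger binding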
T6 chain: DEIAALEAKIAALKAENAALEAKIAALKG

4H3606-AA = molecular target: T7, 4H3606-AA; experiment: two-hybrid library CCmax; details: mean of both orientations
T7 chain: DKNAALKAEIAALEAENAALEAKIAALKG

4H605-AA = molecular target: T8, 4H605-AA; experiment: two-hybrid library CCmax; details: mean of both orientations
T8 chain: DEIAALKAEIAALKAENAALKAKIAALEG

4H3921-AA = molecular target: T9, 4H3921-AA; experiment: two-hybrid library CCmax; details: mean of both orientations
T9 chain: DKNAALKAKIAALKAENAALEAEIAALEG

4H2949-AA = molecular target: T10, 4H2949-AA; experiment: two-hybrid library CCmax; details: mean of both orientations
T10 chain: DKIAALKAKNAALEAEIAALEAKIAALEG

4H317-AA = molecular target: T11, 4H317-AA; experiment: two-hybrid library CCmax; details: mean of both orientations
T11 chain: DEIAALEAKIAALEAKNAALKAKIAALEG

4H3627-AA = molecular target: T12, 4H3627-AA; experiment: two-hybrid library CCmax; details: mean of both orientations
T12 chain: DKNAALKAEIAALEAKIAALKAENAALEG

4H3343-AA = molecular target: T13, 4H3343-AA; experiment: two-hybrid library CCmax; details: mean of both orientations
T13 chain: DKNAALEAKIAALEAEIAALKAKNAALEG

4H566-AA = molecular target: T14, 4H566-AA; experiment: two-hybrid library CCmax; details: mean of both orientations
T14 chain: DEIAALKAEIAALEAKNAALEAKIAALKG

4H2944-AA = molecular target: T15, 4H2944-AA; experiment: two-hybrid library CCmax; details: mean of both orientations
T15 chain: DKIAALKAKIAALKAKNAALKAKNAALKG

4H454-AA = molecular target: T16, 4H454-AA; experiment: two-hybrid library CCmax; details: mean of both orientations
T16 chain: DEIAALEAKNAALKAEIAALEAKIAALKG

4H2754-AA = molecular target: T17, 4H2754-AA; experiment: two-hybrid library CCmax
T17 chain: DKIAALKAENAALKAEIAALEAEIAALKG

4H2837-AA = molecular target: T18, 4H2837-AA; experiment: two-hybrid library CCmax
T18 chain: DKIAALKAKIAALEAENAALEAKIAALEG

4H794-AA = molecular target: T19, 4H794-AA; experiment: two-hybrid library CCmax; details: mean of both orientations
T19 chain: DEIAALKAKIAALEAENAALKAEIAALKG

4H3112-AA = molecular target: T20, 4H3112-AA; experiment: two-hybrid library CCmax; details: mean of both orientations
T20 chain: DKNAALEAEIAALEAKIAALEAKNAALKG

4H335-AA = molecular target: T21, 4H335-AA; experiment: two-hybrid library CCmax; details: mean of both orientations
T21 chain: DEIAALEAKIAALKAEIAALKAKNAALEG

4H881-AA = molecular target: T22, 4H881-AA; experiment: two-hybrid library CCmax; details: mean of both orientations
T22 chain: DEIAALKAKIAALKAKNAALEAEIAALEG

4H48-AA = molecular target: T23, 4H48-AA; experiment: two-hybrid library CCmax; details: mean of both orientations
T23 chain: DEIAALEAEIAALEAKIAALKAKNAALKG

4H993-AA = molecular target: T24, 4H993-AA; experiment: two-hybrid library CCmax; details: mean of both orientations
T24 chain: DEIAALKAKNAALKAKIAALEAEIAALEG

4H3427-AA = molecular target: T25, 4H3427-AA; experiment: two-hybrid library CCmax; details: mean of both orientations
T25 chain: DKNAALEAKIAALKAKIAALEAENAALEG

4H2883-AA = molecular target: T26, 4H2883-AA; experiment: two-hybrid library CCmax
T26 chain: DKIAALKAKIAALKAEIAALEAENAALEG

4H678-AA = molecular target: T27, 4H678-AA; experiment: two-hybrid library CCmax; details: mean of both orientations
T27 chain: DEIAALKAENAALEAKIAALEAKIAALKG

4H717-AA = molecular target: T28, 4H717-AA; experiment: two-hybrid library CCmax; details: mean of both orientations
T28 chain: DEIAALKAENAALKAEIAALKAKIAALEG

4H949-bN = molecular target: T29, 4H949-bN; experiment: two-hybrid library CCNG1
T29 chain: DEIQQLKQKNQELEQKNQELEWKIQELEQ

APC9319-AA = molecular target: T30, APC9319-AA; experiment: two-hybrid library CCmax; details: mean of both orientations
T30 chain: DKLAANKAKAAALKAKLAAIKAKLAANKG

APC9096-AA = molecular target: T31, APC9096-AA; experiment: two-hybrid library CCmax
T31 chain: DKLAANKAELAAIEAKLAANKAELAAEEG

interaction score (4H906-AA): -0.0753
interaction score (4H3655-AA): -1.51
interaction score (4H780-AA): -1.74
interaction score (4H429-AA): 0.608
interaction score (4H3844-AA): -1.53
interaction score (4H342-AA): 0.684
interaction score (4H3606-AA): 0.688
interaction score (4H605-AA): -1.51
interaction score (4H3921-AA): -0.732
interaction score (4H2949-AA): -1.05
interaction score (4H317-AA): -1.23
interaction score (4H3627-AA): -1.36
interaction score (4H3343-AA): -1.26
interaction score (4H566-AA): -1.09
interaction score (4H2944-AA): -1.87
interaction score (4H454-AA): 2.24
interaction score (4H2754-AA): 2.15
interaction score (4H2837-AA; mean of both orientations): -0.727
interaction score (4H794-AA): -1.89
interaction score (4H3112-AA): -1.52
interaction score (4H335-AA): -0.745
interaction score (4H881-AA): 1.13
interaction score (4H48-AA): -1.2
interaction score (4H993-AA): 1.43
interaction score (4H3427-AA): -1.7
interaction score (4H2883-AA; mean of both orientations): -0.999
interaction score (4H678-AA): 1.82
interaction score (4H717-AA): 0.757
B1: 4H2754-AA (peptide)
chain: DKIAALKAENAALKAEIAALEAEIAALKG

interaction score (4H949-bN): -0.614
B2: 4H949-bN (peptide)
chain: DEIQQLKQKNQELEQKNQELEWKIQELEQ

interaction score (APC9319-AA): -1.81
interaction score (APC9096-AA): -2.06
B3: APC9096-AA (peptide)
chain: DKLAANKAELAAIEAKLAANKAELAAEEG

interaction score (4H906-AA): -0.599
interaction score (4H3655-AA): -0.923
interaction score (4H780-AA): -1.81
interaction score (4H429-AA): 0.476
interaction score (4H3844-AA): -1.21
interaction score (4H342-AA): 2.11
interaction score (4H3606-AA): -1.14
interaction score (4H605-AA): 0.402
interaction score (4H3921-AA): -1.49
interaction score (4H2949-AA): -0.836
interaction score (4H317-AA): 1.61
interaction score (4H3627-AA): -1.3
interaction score (4H3343-AA): -1.14
interaction score (4H566-AA): 1.66
interaction score (4H2944-AA): 0.691
interaction score (4H454-AA): -0.102
interaction score (4H2837-AA): 1.42
interaction score (4H794-AA): 0.0291
interaction score (4H3112-AA): 1.23
interaction score (4H335-AA): -0.534
interaction score (4H881-AA): 1.65
interaction score (4H48-AA): 0.24
interaction score (4H993-AA): 1.44
interaction score (4H3427-AA): -2.38
interaction score (4H2883-AA): -0.938
interaction score (4H678-AA): -1.18
interaction score (4H717-AA): -0.861
B4: 4H2837-AA (peptide)
chain: DKIAALKAKIAALEAENAALEAKIAALEG
